{"source": "IntAct's records for PubMed 20935634", "parents": {"B1": {"name": "FAS-associated death domain protein (Homo sapiens), Q13158 (parent)", "chain": "MDPFLVLLHSVSSSLSSSELTELKFLCLGRVGKRKLERVQSGLDLFSMLLEQNDLEPGHTELLRELLASLRRHDLLRRVDDFEAGAAAGAAPGEEDLCAAFNVICDNVGKDWRRLARQLKVSDTKIDSIEDRYPRNLTERVRESLRIWKNTEKENATVAHLVGALRSCQMNLVADLVQEVQQARDLQNRSGAMSPMSWNSDASTSEAS"}, "B2": {"name": "Tumor necrosis factor receptor superfamily member 6 (Homo sapiens), P25445-1 (parent)", "chain": "MLGIWTLLPLVLTSVARLSSKSVNAQVTDINSKGLELRKTVTTVETQNLEGLHHDGQFCHKPCPPGERKARDCTVNGDEPDCVPCQEGKEYTDKAHFSSKCRRCRLCDEGHGLEVEINCTRTQNTKCRCKPNFFCNSTVCEHCDPCTKCEHGIIKECTLTSNTKCKEEGSRSNLGWLCLLLLPIPLIVWVKRKEVQKTCRKHRKENQGSHESPTLNPETVAINLSDVDLSKYITTIAGVMTLSQVKGFVRKNGVNEAKIDEIKNDNVQDTAEQKVQLLRNWHQLHGKKEAYDTLIKDLKKANLCTLAEKIQTIILKDITSDSENSNFRNEIQSLV"}}}
{"variants_of": "B1", "conditions": "with FAS"}
{"variant": "R142E", "effect of a mutation on the interaction": "disrupting interaction"}
{"variant": "R117E", "effect of a mutation on the interaction": "disrupting interaction"}
{"variant": "R135E", "effect of a mutation on the interaction": "disrupting interaction"}
{"variant": "L172K", "effect of a mutation on the interaction": "disrupting interaction"}
{"variant": "D175K", "effect of a mutation on the interaction": "disrupting interaction"}
{"variant": "D123R", "effect of a mutation on the interaction": "disrupting interaction"}
{"variants_of": "B1", "conditions": "with FAS", "remark": "another data set of the same source"}
{"variant": "R142E", "effect of a mutation on the interaction": "decreasing interaction"}
{"variant": "R135E", "effect of a mutation on the interaction": "decreasing interaction"}
{"variant": "L172E", "effect of a mutation on the interaction": "disrupting interaction"}
{"variant": "D123R", "effect of a mutation on the interaction": "decreasing interaction"}
{"variant": "K153E", "effect of a mutation on the interaction": "decreasing interaction"}
{"variants_of": "B2", "conditions": "with fadd_human FADD"}
{"variant": "K287D", "effect of a mutation on the interaction": "disrupting interaction"}
{"variant": "E272K", "effect of a mutation on the interaction": "disrupting interaction"}
{"variant": "E261K", "effect of a mutation on the interaction": "disrupting interaction"}
{"variant": "R250E", "effect of a mutation on the interaction": "disrupting interaction strength"}
{"variant": "R250Q", "effect of a mutation on the interaction": "decreasing interaction strength"}
{"variant": "Q283K", "effect of a mutation on the interaction": "disrupting interaction"}
{"variant": "T270K", "effect of a mutation on the interaction": "disrupting interaction"}
{"variant": "A257D", "effect of a mutation on the interaction": "disrupting interaction"}
{"variant": "D260Y", "effect of a mutation on the interaction": "disrupting interaction"}
{"variants_of": "B2", "conditions": "with fadd_human FADD", "remark": "another data set of the same source"}
{"variant": "R250E", "effect of a mutation on the interaction": "decreasing interaction"}
{"variant": "D260Y", "effect of a mutation on the interaction": "disrupting interaction strength"}
{"variant": "D260V", "effect of a mutation on the interaction": "disrupting interaction strength"}
